Experimental findings from patent publication US20070275049A1 are described below.

The target in test [1] is EGFR-derived peptide(s) on MHC class I (H-2Kb/H-2Db) of EGFR-positive LL/2c tumor cells (mouse).
Test [2] deals with EGFR-derived peptide(s) on MHC class I of EGFR-positive MA782/5S tumor cells (mouse).

With “spleen T cells of mice immunized by chEGFR molecular vaccine (cells without a defined receptor)”, the specific cytocidal activity, standard Cr51 test, at the ratio of 40:1 is 40.3% in test [1] and 42.8% in test [2].
